Data: article PMC4434323

Tests used:
[1] = target: T1, F52B5.7 (F52B5.7) (Caenorhabditis elegans) (UniProt Q7YWZ7)
T1 sequence: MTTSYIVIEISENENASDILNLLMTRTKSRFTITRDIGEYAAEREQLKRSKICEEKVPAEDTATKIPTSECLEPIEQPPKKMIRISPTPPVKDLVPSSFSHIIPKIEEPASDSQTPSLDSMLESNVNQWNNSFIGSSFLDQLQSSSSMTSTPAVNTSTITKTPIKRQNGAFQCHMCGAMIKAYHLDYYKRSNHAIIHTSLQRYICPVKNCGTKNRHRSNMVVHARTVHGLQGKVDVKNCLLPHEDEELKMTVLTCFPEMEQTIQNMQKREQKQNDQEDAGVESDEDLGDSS

[2] = target: T2, lsy-27 (F47H4.1) (Caenorhabditis elegans) (UniProt O45526)
T2 sequence: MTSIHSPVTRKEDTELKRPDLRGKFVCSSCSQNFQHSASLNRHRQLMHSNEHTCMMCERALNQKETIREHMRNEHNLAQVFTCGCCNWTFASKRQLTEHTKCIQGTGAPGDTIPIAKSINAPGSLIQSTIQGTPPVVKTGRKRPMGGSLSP

[3] = target: T3, ztf-29 (Y66D12A.12) (Caenorhabditis elegans) (UniProt Q95Q03)
T3 sequence: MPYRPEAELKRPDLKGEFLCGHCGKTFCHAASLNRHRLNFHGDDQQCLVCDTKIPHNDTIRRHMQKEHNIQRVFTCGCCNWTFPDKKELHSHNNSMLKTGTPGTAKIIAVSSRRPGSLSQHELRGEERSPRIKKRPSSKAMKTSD

[4] = target: T4, ham-2 (C07A12.1) (Caenorhabditis elegans) (UniProt H2KYH4)
T4 sequence: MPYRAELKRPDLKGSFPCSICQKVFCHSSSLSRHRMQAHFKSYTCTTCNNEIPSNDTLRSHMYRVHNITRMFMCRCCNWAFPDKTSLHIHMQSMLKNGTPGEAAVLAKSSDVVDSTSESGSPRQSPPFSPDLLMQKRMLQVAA

[5] = target: pag-3 (F45B8.4) (Caenorhabditis elegans) (UniProt G5EDE1)
[6] = target: T5, Y44A6D.3 (Y44A6D.3) (Caenorhabditis elegans) (UniProt Q9XXE0)
T5 sequence: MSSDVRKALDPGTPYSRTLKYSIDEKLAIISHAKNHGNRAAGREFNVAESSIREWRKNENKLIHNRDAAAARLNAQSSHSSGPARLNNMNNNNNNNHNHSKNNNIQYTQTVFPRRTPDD

[7] = target: T6, lsl-1 (F52F12.4) (Caenorhabditis elegans) (UniProt O02273)
T6 sequence: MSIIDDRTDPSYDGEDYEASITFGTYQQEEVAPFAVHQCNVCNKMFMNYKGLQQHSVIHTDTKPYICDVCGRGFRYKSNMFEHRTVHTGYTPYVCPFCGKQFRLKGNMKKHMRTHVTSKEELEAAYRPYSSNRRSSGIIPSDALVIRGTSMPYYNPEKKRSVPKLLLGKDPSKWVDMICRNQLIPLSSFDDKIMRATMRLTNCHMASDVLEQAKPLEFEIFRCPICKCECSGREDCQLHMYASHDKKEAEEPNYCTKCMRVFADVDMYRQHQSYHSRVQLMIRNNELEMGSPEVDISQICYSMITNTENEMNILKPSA

[8] = target: T7, che-1 (C55B7.12) (Caenorhabditis elegans) (UniProt Q966L8)
T7 sequence: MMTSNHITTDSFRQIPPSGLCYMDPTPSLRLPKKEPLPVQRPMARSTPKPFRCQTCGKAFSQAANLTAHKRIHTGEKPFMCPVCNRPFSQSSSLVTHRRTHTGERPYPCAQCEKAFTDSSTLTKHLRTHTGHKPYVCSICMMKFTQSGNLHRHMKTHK

[9] = target: lin-48 (F34D10.5) (Caenorhabditis elegans) (UniProt G5EDU6)
Sequence of lin-48 (F34D10.5) (Caenorhabditis elegans) (G5EDU6 83-280): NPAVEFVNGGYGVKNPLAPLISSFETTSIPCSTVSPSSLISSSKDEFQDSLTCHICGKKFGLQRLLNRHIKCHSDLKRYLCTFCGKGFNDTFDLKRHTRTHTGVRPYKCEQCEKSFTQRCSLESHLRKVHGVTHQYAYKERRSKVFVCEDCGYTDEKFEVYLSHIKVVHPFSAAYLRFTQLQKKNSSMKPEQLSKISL

Sequence of pag-3 (F45B8.4) (Caenorhabditis elegans) (G5EDE1 76-311): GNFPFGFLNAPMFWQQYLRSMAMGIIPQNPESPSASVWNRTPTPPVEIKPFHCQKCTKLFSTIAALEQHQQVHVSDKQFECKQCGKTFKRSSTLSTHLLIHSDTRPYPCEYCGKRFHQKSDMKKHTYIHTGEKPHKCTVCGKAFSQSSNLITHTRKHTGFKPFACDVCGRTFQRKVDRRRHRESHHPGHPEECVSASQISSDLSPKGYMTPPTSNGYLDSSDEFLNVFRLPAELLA

## CCCCATAG (double strand) [8-mer CCCCATAG]
[1]
  binding signal (PBM E-score (-0.5 to 0.5)): 0.492

## ATGGGGTA (double strand) [8-mer ATGGGGTA]
[1]
  binding signal (PBM E-score (-0.5 to 0.5)): 0.488

## AAGCTTAA (double strand) [8-mer AAGCTTAA]
[2]
  binding signal (PBM E-score (-0.5 to 0.5)): 0.493
[3]
  binding signal (PBM E-score (-0.5 to 0.5)): 0.494
[4]
  binding signal (PBM E-score (-0.5 to 0.5)): 0.493

## ACCCCATA (double strand) [8-mer ACCCCATA]
[1]
  binding signal (PBM E-score (-0.5 to 0.5)): 0.496

## AAAGCTTT (double strand) [8-mer AAAGCTTT]
[2]
  binding signal (PBM E-score (-0.5 to 0.5)): 0.491
[3]
  binding signal (PBM E-score (-0.5 to 0.5)): 0.496
[4]
  binding signal (PBM E-score (-0.5 to 0.5)): 0.478

## GCTTAAGC (double strand) [8-mer GCTTAAGC]
[2]
  binding signal (PBM E-score (-0.5 to 0.5)): 0.494
[3]
  binding signal (PBM E-score (-0.5 to 0.5)): 0.491
[4]
  binding signal (PBM E-score (-0.5 to 0.5)): 0.493

## AATCACAG (double strand) [8-mer AATCACAG]
[5]
  binding signal (PBM E-score (-0.5 to 0.5)): 0.491

## AATCACTG (double strand) [8-mer AATCACTG]
[5]
  binding signal (PBM E-score (-0.5 to 0.5)): 0.49

## AATCTGTG (double strand) [8-mer AATCTGTG]
[5]
  binding signal (PBM E-score (-0.5 to 0.5)): 0.487

## CCGCGCAC (double strand) [8-mer CCGCGCAC]
[6]
  binding signal (PBM E-score (-0.5 to 0.5)): 0.496

## ATGCGCGG (double strand) [8-mer ATGCGCGG]
[6]
  binding signal (PBM E-score (-0.5 to 0.5)): 0.494

## CTGCGCAG (double strand) [8-mer CTGCGCAG]
[6]
  binding signal (PBM E-score (-0.5 to 0.5)): 0.496

## AAATCACA (double strand) [8-mer AAATCACA]
[5]
  binding signal (PBM E-score (-0.5 to 0.5)): 0.49

## ACCCCATG (double strand) [8-mer ACCCCATG]
[1]
  binding signal (PBM E-score (-0.5 to 0.5)): 0.486

## ATACCGTA (double strand) [8-mer ATACCGTA]
[7]
  binding signal (PBM E-score (-0.5 to 0.5)): 0.492

## GGTGCGCA (double strand) [8-mer GGTGCGCA]
[6]
  binding signal (PBM E-score (-0.5 to 0.5)): 0.493

## TACCCATA (double strand) [8-mer TACCCATA]
[1]
  binding signal (PBM E-score (-0.5 to 0.5)): 0.485

## ATGGGTAC (double strand) [8-mer ATGGGTAC]
[1]
  binding signal (PBM E-score (-0.5 to 0.5)): 0.488

## ACCCATGG (double strand) [8-mer ACCCATGG]
[1]
  binding signal (PBM E-score (-0.5 to 0.5)): 0.485

## ATGGATAC (double strand) [8-mer ATGGATAC]
[1]
  binding signal (PBM E-score (-0.5 to 0.5)): 0.485

## CCTGCGCA (double strand) [8-mer CCTGCGCA]
[6]
  binding signal (PBM E-score (-0.5 to 0.5)): 0.493

## AATCAGTG (double strand) [8-mer AATCAGTG]
[5]
  binding signal (PBM E-score (-0.5 to 0.5)): 0.491

## ACTGCGCA (double strand) [8-mer ACTGCGCA]
[6]
  binding signal (PBM E-score (-0.5 to 0.5)): 0.498

## CAGATTTA (double strand) [8-mer CAGATTTA]
[5]
  binding signal (PBM E-score (-0.5 to 0.5)): 0.489

## AAAATCTG (double strand) [8-mer AAAATCTG]
[5]
  binding signal (PBM E-score (-0.5 to 0.5)): 0.491

## ACCGCGCA (double strand) [8-mer ACCGCGCA]
[6]
  binding signal (PBM E-score (-0.5 to 0.5)): 0.495

## AAAGCTTC (double strand) [8-mer AAAGCTTC]
[2]
  binding signal (PBM E-score (-0.5 to 0.5)): 0.492
[3]
  binding signal (PBM E-score (-0.5 to 0.5)): 0.486

## GGCTTCAC (double strand) [8-mer GGCTTCAC]
[8]
  binding signal (PBM E-score (-0.5 to 0.5)): 0.492
[2]
  binding signal (PBM E-score (-0.5 to 0.5)): 0.49

## AAGCTTCA (double strand) [8-mer AAGCTTCA]
[2]
  binding signal (PBM E-score (-0.5 to 0.5)): 0.497
[3]
  binding signal (PBM E-score (-0.5 to 0.5)): 0.489

## GAAGCTTC (double strand) [8-mer GAAGCTTC]
[2]
  binding signal (PBM E-score (-0.5 to 0.5)): 0.496
[3]
  binding signal (PBM E-score (-0.5 to 0.5)): 0.494

## AAATCTCA (double strand) [8-mer AAATCTCA]
[5]
  binding signal (PBM E-score (-0.5 to 0.5)): 0.487

## CCCCATGA (double strand) [8-mer CCCCATGA]
[1]
  binding signal (PBM E-score (-0.5 to 0.5)): 0.495

## GAAGCTTA (double strand) [8-mer GAAGCTTA]
[2]
  binding signal (PBM E-score (-0.5 to 0.5)): 0.493
[3]
  binding signal (PBM E-score (-0.5 to 0.5)): 0.485
[4]
  binding signal (PBM E-score (-0.5 to 0.5)): 0.482

## CCCCATAA (double strand) [8-mer CCCCATAA]
[1]
  binding signal (PBM E-score (-0.5 to 0.5)): 0.495

## ATGCGCAG (double strand) [8-mer ATGCGCAG]
[6]
  binding signal (PBM E-score (-0.5 to 0.5)): 0.493

## AGCTTCAG (double strand) [8-mer AGCTTCAG]
[2]
  binding signal (PBM E-score (-0.5 to 0.5)): 0.491

## GCTTCACC (double strand) [8-mer GCTTCACC]
[2]
  binding signal (PBM E-score (-0.5 to 0.5)): 0.491

## CCATGGGG (double strand) [8-mer CCATGGGG]
[1]
  binding signal (PBM E-score (-0.5 to 0.5)): 0.482

## CTACTGTA (double strand) [8-mer CTACTGTA]
[7]
  binding signal (PBM E-score (-0.5 to 0.5)): 0.491

## ATACGGTA (double strand) [8-mer ATACGGTA]
[7]
  binding signal (PBM E-score (-0.5 to 0.5)): 0.495

## GTACCATA (double strand) [8-mer GTACCATA]
[1]
  binding signal (PBM E-score (-0.5 to 0.5)): 0.487

## AGCTTCAC (double strand) [8-mer AGCTTCAC]
[2]
  binding signal (PBM E-score (-0.5 to 0.5)): 0.493

## TACGGTAA (double strand) [8-mer TACGGTAA]
[7]
  binding signal (PBM E-score (-0.5 to 0.5)): 0.492

## CAAATCTG (double strand) [8-mer CAAATCTG]
[5]
  binding signal (PBM E-score (-0.5 to 0.5)): 0.489

## TACCGTAA (double strand) [8-mer TACCGTAA]
[7]
  binding signal (PBM E-score (-0.5 to 0.5)): 0.493

## TCCGCGCA (double strand) [8-mer TCCGCGCA]
[6]
  binding signal (PBM E-score (-0.5 to 0.5)): 0.495

## AAATCTGA (double strand) [8-mer AAATCTGA]
[5]
  binding signal (PBM E-score (-0.5 to 0.5)): 0.486

## AACCGTTA (double strand) [8-mer AACCGTTA]
[9]
  binding signal (PBM E-score (-0.5 to 0.5)): 0.49

## AAATCTGT (double strand) [8-mer AAATCTGT]
[5]
  binding signal (PBM E-score (-0.5 to 0.5)): 0.49

## GCTGCGCA (double strand) [8-mer GCTGCGCA]
[6]
  binding signal (PBM E-score (-0.5 to 0.5)): 0.494

## CTACCGTA (double strand) [8-mer CTACCGTA]
[7]
  binding signal (PBM E-score (-0.5 to 0.5)): 0.498

## AAATCTGG (double strand) [8-mer AAATCTGG]
[5]
  binding signal (PBM E-score (-0.5 to 0.5)): 0.493

## AGCTTCAT (double strand) [8-mer AGCTTCAT]
[2]
  binding signal (PBM E-score (-0.5 to 0.5)): 0.494

## AATCTCAG (double strand) [8-mer AATCTCAG]
[5]
  binding signal (PBM E-score (-0.5 to 0.5)): 0.49

## CTGCGCAA (double strand) [8-mer CTGCGCAA]
[6]
  binding signal (PBM E-score (-0.5 to 0.5)): 0.495

## AGCTTCTG (double strand) [8-mer AGCTTCTG]
[2]
  binding signal (PBM E-score (-0.5 to 0.5)): 0.491

## AAATCACG (double strand) [8-mer AAATCACG]
[5]
  binding signal (PBM E-score (-0.5 to 0.5)): 0.492

## CCCATGGG (double strand) [8-mer CCCATGGG]
[1]
  binding signal (PBM E-score (-0.5 to 0.5)): 0.485

## GCCGCGCA (double strand) [8-mer GCCGCGCA]
[6]
  binding signal (PBM E-score (-0.5 to 0.5)): 0.494

## CCCCCATA (double strand) [8-mer CCCCCATA]
[1]
  binding signal (PBM E-score (-0.5 to 0.5)): 0.485

## AAGCTTCT (double strand) [8-mer AAGCTTCT]
[2]
  binding signal (PBM E-score (-0.5 to 0.5)): 0.496
[3]
  binding signal (PBM E-score (-0.5 to 0.5)): 0.49

## CAAATCAC (double strand) [8-mer CAAATCAC]
[5]
  binding signal (PBM E-score (-0.5 to 0.5)): 0.487

## CTACGGTA (double strand) [8-mer CTACGGTA]
[7]
  binding signal (PBM E-score (-0.5 to 0.5)): 0.491

## CCGCGCAG (double strand) [8-mer CCGCGCAG]
[6]
  binding signal (PBM E-score (-0.5 to 0.5)): 0.495

## AAGCTTTA (double strand) [8-mer AAGCTTTA]
[2]
  binding signal (PBM E-score (-0.5 to 0.5)): 0.49
[3]
  binding signal (PBM E-score (-0.5 to 0.5)): 0.494
[4]
  binding signal (PBM E-score (-0.5 to 0.5)): 0.482

## GCCCCATA (double strand) [8-mer GCCCCATA]
[1]
  binding signal (PBM E-score (-0.5 to 0.5)): 0.487

## ACCGTTAC (double strand) [8-mer ACCGTTAC]
[9]
  binding signal (PBM E-score (-0.5 to 0.5)): 0.497

## TAACGGGA (double strand) [8-mer TAACGGGA]
[9]
  binding signal (PBM E-score (-0.5 to 0.5)): 0.49
